Reference: patent US20210196796A1 (SYNTHEKINE, published 2021)

Assays:
[1] = target: T1, orthogonal hCD122 receptor (hoRb), hCD122 with H133D and Y134F (human, UniProt P14784 27-550); assay: cell-based or functional assay
T1 sequence: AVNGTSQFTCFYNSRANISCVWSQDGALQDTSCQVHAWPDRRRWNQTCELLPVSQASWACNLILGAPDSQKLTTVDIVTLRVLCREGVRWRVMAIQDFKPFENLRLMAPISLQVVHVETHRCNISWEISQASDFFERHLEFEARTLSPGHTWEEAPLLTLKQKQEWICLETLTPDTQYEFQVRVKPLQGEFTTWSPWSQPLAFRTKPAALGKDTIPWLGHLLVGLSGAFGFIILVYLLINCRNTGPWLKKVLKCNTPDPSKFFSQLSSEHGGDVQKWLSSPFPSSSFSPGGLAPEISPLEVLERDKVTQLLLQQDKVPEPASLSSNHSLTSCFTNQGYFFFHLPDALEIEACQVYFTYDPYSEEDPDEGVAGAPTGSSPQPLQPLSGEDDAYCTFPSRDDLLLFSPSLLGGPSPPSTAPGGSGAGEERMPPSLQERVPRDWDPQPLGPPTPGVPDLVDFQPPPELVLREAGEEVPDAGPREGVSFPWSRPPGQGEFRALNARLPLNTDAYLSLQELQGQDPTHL

[2] = target: T1, orthogonal hCD122 receptor (hoRb), …; assay: cell-based or functional assay; remark: listed apart in the source

B1: L18G, SQVLKA (ligand)
chain: APTSSSTKKTQLQLSQLGVLLKAILNGINNYKNPKLTRMLTFKFYMPKKATELKHLQCLEEELKPLEEVLNLAQSKNFHLRPRDLISNINVIVLELKGSETTFMCEYADETATIVEFLNRWITFCQSIISTLT
- NKL Ortho Proliferation Signal 1:2 [1]: 15400
- NKL Ortho Proliferation Signal 1:10 [1]: 13400
- NKL Ortho Proliferation Signal 1:50 [1]: 8640
- Relative Proliferation Fold Change NKL 1:2 [1]: 1.05 fold
- Relative Proliferation Fold Change NKL 1:10 [1]: 0.83 fold
- Relative Proliferation Fold Change NKL 1:50 [1]: 0.57 fold
- 3F8 Ortho Proliferation Signal 1:2 [2]: 37700 cts/min
- 3F8 Ortho Proliferation Signal 1:10 [2]: 25900 cts/min
- 3F8 Ortho Proliferation Signal 1:50 [2]: 9750 cts/min
- Relative Proliferation Fold Change 3F8 1:2 [2]: 52.9 fold
- Relative Proliferation Fold Change 3F8 1:10 [2]: 17 fold
- Relative Proliferation Fold Change 3F8 1:50 [2]: 3.79 fold

B2: L18M, SQVLKA (ligand)
chain: APTSSSTKKTQLQLSQLMVLLKAILNGINNYKNPKLTRMLTFKFYMPKKATELKHLQCLEEELKPLEEVLNLAQSKNFHLRPRDLISNINVIVLELKGSETTFMCEYADETATIVEFLNRWITFCQSIISTLT
- NKL Ortho Proliferation Signal 1:2 [1]: 42700
- NKL Ortho Proliferation Signal 1:10 [1]: 43900
- NKL Ortho Proliferation Signal 1:50 [1]: 22100
- Relative Proliferation Fold Change NKL 1:2 [1]: 3.7 fold
- Relative Proliferation Fold Change NKL 1:10 [1]: 2.72 fold
- Relative Proliferation Fold Change NKL 1:50 [1]: 1.55 fold
- 3F8 Ortho Proliferation Signal 1:2 [2]: 42000 cts/min
- 3F8 Ortho Proliferation Signal 1:10 [2]: 48500 cts/min
- 3F8 Ortho Proliferation Signal 1:50 [2]: 37200 cts/min
- Relative Proliferation Fold Change 3F8 1:2 [2]: 55 fold
- Relative Proliferation Fold Change 3F8 1:10 [2]: 21.9 fold
- Relative Proliferation Fold Change 3F8 1:50 [2]: 16.6 fold

B3: L18F, SQVLKA (ligand)
chain: APTSSSTKKTQLQLSQLFVLLKAILNGINNYKNPKLTRMLTFKFYMPKKATELKHLQCLEEELKPLEEVLNLAQSKNFHLRPRDLISNINVIVLELKGSETTFMCEYADETATIVEFLNRWITFCQSIISTLT
- NKL Ortho Proliferation Signal 1:2 [1]: 48600
- NKL Ortho Proliferation Signal 1:10 [1]: 39400
- NKL Ortho Proliferation Signal 1:50 [1]: 19400
- Relative Proliferation Fold Change NKL 1:2 [1]: 3.85 fold
- Relative Proliferation Fold Change NKL 1:10 [1]: 2.52 fold
- Relative Proliferation Fold Change NKL 1:50 [1]: 1.3 fold
- 3F8 Ortho Proliferation Signal 1:2 [2]: 49800 cts/min
- 3F8 Ortho Proliferation Signal 1:10 [2]: 40800 cts/min
- 3F8 Ortho Proliferation Signal 1:50 [2]: 30000 cts/min
- Relative Proliferation Fold Change 3F8 1:2 [2]: 54.8 fold
- Relative Proliferation Fold Change 3F8 1:10 [2]: 16.8 fold
- Relative Proliferation Fold Change 3F8 1:50 [2]: 11.8 fold

B4: L18E, SQVLKA (ligand)
chain: APTSSSTKKTQLQLSQLEVLLKAILNGINNYKNPKLTRMLTFKFYMPKKATELKHLQCLEEELKPLEEVLNLAQSKNFHLRPRDLISNINVIVLELKGSETTFMCEYADETATIVEFLNRWITFCQSIISTLT
- NKL Ortho Proliferation Signal 1:2 [1]: 8260
- NKL Ortho Proliferation Signal 1:10 [1]: 9060
- NKL Ortho Proliferation Signal 1:50 [1]: 8120
- Relative Proliferation Fold Change NKL 1:2 [1]: 0.57 fold
- Relative Proliferation Fold Change NKL 1:10 [1]: 0.56 fold
- Relative Proliferation Fold Change NKL 1:50 [1]: 0.51 fold
- 3F8 Ortho Proliferation Signal 1:2 [2]: 6090 cts/min
- 3F8 Ortho Proliferation Signal 1:10 [2]: 2350 cts/min
- 3F8 Ortho Proliferation Signal 1:50 [2]: 1980 cts/min
- Relative Proliferation Fold Change 3F8 1:2 [2]: 9.99 fold
- Relative Proliferation Fold Change 3F8 1:10 [2]: 0.93 fold
- Relative Proliferation Fold Change 3F8 1:50 [2]: 0.77 fold

B5: T3C, SQVLKA (ligand)
chain: APCSSSTKKTQLQLSQLLVLLKAILNGINNYKNPKLTRMLTFKFYMPKKATELKHLQCLEEELKPLEEVLNLAQSKNFHLRPRDLISNINVIVLELKGSETTFMCEYADETATIVEFLNRWITFCQSIISTLT
- NKL Ortho Proliferation Signal 1:2 [1]: 60600
- NKL Ortho Proliferation Signal 1:10 [1]: 70800
- NKL Ortho Proliferation Signal 1:50 [1]: 35300
- Relative Proliferation Fold Change NKL 1:2 [1]: 4.54 fold
- Relative Proliferation Fold Change NKL 1:10 [1]: 4.16 fold
- Relative Proliferation Fold Change NKL 1:50 [1]: 2.06 fold
- 3F8 Ortho Proliferation Signal 1:2 [2]: 33100 cts/min
- 3F8 Ortho Proliferation Signal 1:10 [2]: 33700 cts/min
- 3F8 Ortho Proliferation Signal 1:50 [2]: 14600 cts/min
- Relative Proliferation Fold Change 3F8 1:2 [2]: 34.9 fold
- Relative Proliferation Fold Change 3F8 1:10 [2]: 12.8 fold
- Relative Proliferation Fold Change 3F8 1:50 [2]: 12 fold

B6: L18W, SQVLKA (ligand)
chain: APTSSSTKKTQLQLSQLWVLLKAILNGINNYKNPKLTRMLTFKFYMPKKATELKHLQCLEEELKPLEEVLNLAQSKNFHLRPRDLISNINVIVLELKGSETTFMCEYADETATIVEFLNRWITFCQSIISTLT
- NKL Ortho Proliferation Signal 1:2 [1]: 18700
- NKL Ortho Proliferation Signal 1:10 [1]: 17000
- NKL Ortho Proliferation Signal 1:50 [1]: 10700
- Relative Proliferation Fold Change NKL 1:2 [1]: 1.56 fold
- Relative Proliferation Fold Change NKL 1:10 [1]: 1.1 fold
- Relative Proliferation Fold Change NKL 1:50 [1]: 0.71 fold
- 3F8 Ortho Proliferation Signal 1:2 [2]: 36800 cts/min
- 3F8 Ortho Proliferation Signal 1:10 [2]: 32800 cts/min
- 3F8 Ortho Proliferation Signal 1:50 [2]: 9570 cts/min
- Relative Proliferation Fold Change 3F8 1:2 [2]: 138 fold
- Relative Proliferation Fold Change 3F8 1:10 [2]: 43.1 fold
- Relative Proliferation Fold Change 3F8 1:50 [2]: 12.7 fold

B7: L18K, SQVLKA (ligand)
chain: APTSSSTKKTQLQLSQLKVLLKAILNGINNYKNPKLTRMLTFKFYMPKKATELKHLQCLEEELKPLEEVLNLAQSKNFHLRPRDLISNINVIVLELKGSETTFMCEYADETATIVEFLNRWITFCQSIISTLT
- NKL Ortho Proliferation Signal 1:2 [1]: 22200
- NKL Ortho Proliferation Signal 1:10 [1]: 20200
- NKL Ortho Proliferation Signal 1:50 [1]: 11500
- Relative Proliferation Fold Change NKL 1:2 [1]: 1.56 fold
- Relative Proliferation Fold Change NKL 1:10 [1]: 1.21 fold
- Relative Proliferation Fold Change NKL 1:50 [1]: 0.76 fold
- 3F8 Ortho Proliferation Signal 1:2 [2]: 45400 cts/min
- 3F8 Ortho Proliferation Signal 1:10 [2]: 42800 cts/min
- 3F8 Ortho Proliferation Signal 1:50 [2]: 20400 cts/min
- Relative Proliferation Fold Change 3F8 1:2 [2]: 162 fold
- Relative Proliferation Fold Change 3F8 1:10 [2]: 49.6 fold
- Relative Proliferation Fold Change 3F8 1:50 [2]: 14.6 fold

B8: L18Q, SQVLKA (ligand)
chain: APTSSSTKKTQLQLSQLQVLLKAILNGINNYKNPKLTRMLTFKFYMPKKATELKHLQCLEEELKPLEEVLNLAQSKNFHLRPRDLISNINVIVLELKGSETTFMCEYADETATIVEFLNRWITFCQSIISTLT
- NKL Ortho Proliferation Signal 1:2 [1]: 47500
- NKL Ortho Proliferation Signal 1:10 [1]: 41200
- NKL Ortho Proliferation Signal 1:50 [1]: 21400
- Relative Proliferation Fold Change NKL 1:2 [1]: 3.93 fold
- Relative Proliferation Fold Change NKL 1:10 [1]: 2.5 fold
- Relative Proliferation Fold Change NKL 1:50 [1]: 1.41 fold
- 3F8 Ortho Proliferation Signal 1:2 [2]: 40800 cts/min
- 3F8 Ortho Proliferation Signal 1:10 [2]: 57200 cts/min
- 3F8 Ortho Proliferation Signal 1:50 [2]: 44700 cts/min
- Relative Proliferation Fold Change 3F8 1:2 [2]: 111 fold
- Relative Proliferation Fold Change 3F8 1:10 [2]: 80.8 fold
- Relative Proliferation Fold Change 3F8 1:50 [2]: 47.2 fold

B9: L18S, SQVLKA (ligand)
chain: APTSSSTKKTQLQLSQLSVLLKAILNGINNYKNPKLTRMLTFKFYMPKKATELKHLQCLEEELKPLEEVLNLAQSKNFHLRPRDLISNINVIVLELKGSETTFMCEYADETATIVEFLNRWITFCQSIISTLT
- NKL Ortho Proliferation Signal 1:2 [1]: 27200
- NKL Ortho Proliferation Signal 1:10 [1]: 21500
- NKL Ortho Proliferation Signal 1:50 [1]: 11500
- Relative Proliferation Fold Change NKL 1:2 [1]: 2.4 fold
- Relative Proliferation Fold Change NKL 1:10 [1]: 1.56 fold
- Relative Proliferation Fold Change NKL 1:50 [1]: 0.85 fold
- 3F8 Ortho Proliferation Signal 1:2 [2]: 43300 cts/min
- 3F8 Ortho Proliferation Signal 1:10 [2]: 48600 cts/min
- 3F8 Ortho Proliferation Signal 1:50 [2]: 23600 cts/min
- Relative Proliferation Fold Change 3F8 1:2 [2]: 185 fold
- Relative Proliferation Fold Change 3F8 1:10 [2]: 89 fold
- Relative Proliferation Fold Change 3F8 1:50 [2]: 41.9 fold

B10: L18V, SQVLKA (ligand)
chain: APTSSSTKKTQLQLSQLVVLLKAILNGINNYKNPKLTRMLTFKFYMPKKATELKHLQCLEEELKPLEEVLNLAQSKNFHLRPRDLISNINVIVLELKGSETTFMCEYADETATIVEFLNRWITFCQSIISTLT
- NKL Ortho Proliferation Signal 1:2 [1]: 17800
- NKL Ortho Proliferation Signal 1:10 [1]: 14000
- NKL Ortho Proliferation Signal 1:50 [1]: 8670
- Relative Proliferation Fold Change NKL 1:2 [1]: 1.36 fold
- Relative Proliferation Fold Change NKL 1:10 [1]: 0.96 fold
- Relative Proliferation Fold Change NKL 1:50 [1]: 0.62 fold
- 3F8 Ortho Proliferation Signal 1:2 [2]: 36500 cts/min
- 3F8 Ortho Proliferation Signal 1:10 [2]: 29500 cts/min
- 3F8 Ortho Proliferation Signal 1:50 [2]: 9920 cts/min
- Relative Proliferation Fold Change 3F8 1:2 [2]: 139 fold
- Relative Proliferation Fold Change 3F8 1:10 [2]: 19.2 fold
- Relative Proliferation Fold Change 3F8 1:50 [2]: 12 fold

B11: L18I, SQVLKA (ligand)
chain: APTSSSTKKTQLQLSQLIVLLKAILNGINNYKNPKLTRMLTFKFYMPKKATELKHLQCLEEELKPLEEVLNLAQSKNFHLRPRDLISNINVIVLELKGSETTFMCEYADETATIVEFLNRWITFCQSIISTLT
- NKL Ortho Proliferation Signal 1:2 [1]: 23800
- NKL Ortho Proliferation Signal 1:10 [1]: 20500
- NKL Ortho Proliferation Signal 1:50 [1]: 11000
- Relative Proliferation Fold Change NKL 1:2 [1]: 2.05 fold
- Relative Proliferation Fold Change NKL 1:10 [1]: 1.38 fold
- Relative Proliferation Fold Change NKL 1:50 [1]: 0.8 fold
- 3F8 Ortho Proliferation Signal 1:2 [2]: 36900 cts/min
- 3F8 Ortho Proliferation Signal 1:10 [2]: 37300 cts/min
- 3F8 Ortho Proliferation Signal 1:50 [2]: 19400 cts/min
- Relative Proliferation Fold Change 3F8 1:2 [2]: 81.2 fold
- Relative Proliferation Fold Change 3F8 1:10 [2]: 29.8 fold
- Relative Proliferation Fold Change 3F8 1:50 [2]: 11 fold

B12: L18Y, SQVLKA (ligand)
chain: APTSSSTKKTQLQLSQLYVLLKAILNGINNYKNPKLTRMLTFKFYMPKKATELKHLQCLEEELKPLEEVLNLAQSKNFHLRPRDLISNINVIVLELKGSETTFMCEYADETATIVEFLNRWITFCQSIISTLT
- NKL Ortho Proliferation Signal 1:2 [1]: 37300
- NKL Ortho Proliferation Signal 1:10 [1]: 27000
- NKL Ortho Proliferation Signal 1:50 [1]: 14800
- Relative Proliferation Fold Change NKL 1:2 [1]: 3.34 fold
- Relative Proliferation Fold Change NKL 1:10 [1]: 2.09 fold
- Relative Proliferation Fold Change NKL 1:50 [1]: 1.19 fold
- 3F8 Ortho Proliferation Signal 1:2 [2]: 47600 cts/min
- 3F8 Ortho Proliferation Signal 1:10 [2]: 51400 cts/min
- 3F8 Ortho Proliferation Signal 1:50 [2]: 28200 cts/min
- Relative Proliferation Fold Change 3F8 1:2 [2]: 214 fold
- Relative Proliferation Fold Change 3F8 1:10 [2]: 101 fold
- Relative Proliferation Fold Change 3F8 1:50 [2]: 64 fold
